Test results reported in IntAct's records for PubMed 31515488.

B1: Leucine-rich repeat-containing protein 45 (Homo sapiens), Q96CN5 (parent)
chain: MEEFRRSYSRLCRESGAEPQEAVLQQLHQLPRGRLDLATQSLTVETCRALGKLLPRETLCTELVLSDCMLSEEGATLLLRGLCANTVLRFLDLKGNNLRAAGAEALGKLLQQNKSIQSLTLEWNSLGTWDDAFATFCGGLAANGALQRLDLRNNQISHKGAEELALALKGNTTLQQLDLRWNNVGLLGGRALMNCLPSNRTLWRLDLAGNNIPGDVLRAVEQAMGHSQDRLTTFQENQARTHVLSKEVQHLREEKSKQFLDLMETIDKQREEMAKSSRASAARVGQLQEALNERHSIINALKAKLQMTEAALALSEQKAQDLGELLATAEQEQLSLSQRQAKELKLEQQEAAERESKLLRDLSAANEKNLLLQNQVDELERKFRCQQEQLFQTRQEMTSMSAELKMRAIQAEERLDMEKRRCRQSLEDSESLRIKEVEHMTRHLEESEKAMQERVQRLEAARLSLEEELSRVKAAALSERGQAEEELIKAKSQARLEEQQRLAHLEDKLRLLAQARDEAQGACLQQKQVVAEAQTRVSQLGLQVEGLRRRLEELQQELSLKDQERVAEVSRVRVELQEQNGRLQAELAAQEALREKAAALERQLKVMASDHREALLDRESENASLREKLRLREAEIARIRDEEAQRASFLQNAVLAYVQASPVRTLSPPK
partner: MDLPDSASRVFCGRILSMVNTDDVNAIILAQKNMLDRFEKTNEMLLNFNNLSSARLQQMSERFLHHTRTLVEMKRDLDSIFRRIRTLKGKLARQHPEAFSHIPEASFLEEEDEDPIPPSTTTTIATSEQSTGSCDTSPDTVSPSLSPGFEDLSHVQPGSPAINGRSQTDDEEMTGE
B2: Protein NOXP20 (Homo sapiens), Q8IWE2 (parent)
chain: MSDDAGDTLATGDKAEVTEMPNSDSLPEDAEVHCDSAAVSHEPTPADPRGEGHENAAVQGAGAAAIGPPVQPQDANALEPPLNGDVTEDTLAECIDSVSLEAEPRSEIPLQEQNYLAVDSPPSGGGWAGWGSWGKSLLSSASATVGHGLTAVKEKAGATLRIHGVNSGSSEGAQPNTENGVPEITDAATDQGPAESPPTSPSSASRGMLSAITNVVQNTGKSVLTGGLDALEFIGKKTMNVLAESDPGFKRTKTLMERTVSLSQMLREAKEKEKQRLAQQLTMERTAHYGMLFDEYQGLSHLEALEILSNESESKVQSFLASLDGEKLELLKNDLISIKDIFAAKELENEENQEEQGLEEKGEEFARMLTELLFELHVAATPDKLNKAMKRAHDWVEEDQTVVSVDVAKVSEEETKKEEKEEKSQDPQEDKKEEKKTKTIEEVYMSSIESLAEVTARCIEQLHKVAELILHGQEEEKPAQDQAKVLIKLTTAMCNEVASLSKKFTNSLTTVGSNKKAEVLNPMISSVLLEGCNSTTYIQDAFQLLLPVLQVSHIQTSCLKAQP
partner: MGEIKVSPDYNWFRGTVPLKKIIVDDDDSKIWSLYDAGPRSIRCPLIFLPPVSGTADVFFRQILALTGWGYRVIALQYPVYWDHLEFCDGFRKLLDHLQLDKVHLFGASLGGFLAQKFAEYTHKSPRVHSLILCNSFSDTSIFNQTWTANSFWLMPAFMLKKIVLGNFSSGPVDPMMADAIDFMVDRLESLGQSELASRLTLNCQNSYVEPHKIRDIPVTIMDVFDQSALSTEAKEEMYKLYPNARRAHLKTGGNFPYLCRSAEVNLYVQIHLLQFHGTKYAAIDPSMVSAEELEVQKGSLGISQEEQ
B3: Zinc finger protein Aiolos (Homo sapiens), Q9UKT9 (parent)
chain: MEDIQTNAELKSTQEQSVPAESAAVLNDYSLTKSHEMENVDSGEGPANEDEDIGDDSMKVKDEYSERDENVLKSEPMGNAEEPEIPYSYSREYNEYENIKLERHVVSFDSSRPTSGKMNCDVCGLSCISFNVLMVHKRSHTGERPFQCNQCGASFTQKGNLLRHIKLHTGEKPFKCHLCNYACQRRDALTGHLRTHSVEKPYKCEFCGRSYKQRSSLEEHKERCRTFLQSTDPGDTASAEARHIKAEMGSERALVLDRLASNVAKRKSSMPQKFIGEKRHCFDVNYNSSYMYEKESELIQTRMMDQAINNAISYLGAEALRPLVQTPPAPTSEMVPVISSMYPIALTRAEMSNGAPQELEKKSIHLPEKSVPSERGLSPNNSGHDSTDTDSNHEERQNHIYQQNHMVLSRARNGMPLLKEVPRSYELLKPPPICPRDSVKVINKEGEVMDVYRCDHCRVLFLDYVMFTIHMGCHGFRDPFECNMCGYRSHDRYEFSSHIARGEHRALLK
partner: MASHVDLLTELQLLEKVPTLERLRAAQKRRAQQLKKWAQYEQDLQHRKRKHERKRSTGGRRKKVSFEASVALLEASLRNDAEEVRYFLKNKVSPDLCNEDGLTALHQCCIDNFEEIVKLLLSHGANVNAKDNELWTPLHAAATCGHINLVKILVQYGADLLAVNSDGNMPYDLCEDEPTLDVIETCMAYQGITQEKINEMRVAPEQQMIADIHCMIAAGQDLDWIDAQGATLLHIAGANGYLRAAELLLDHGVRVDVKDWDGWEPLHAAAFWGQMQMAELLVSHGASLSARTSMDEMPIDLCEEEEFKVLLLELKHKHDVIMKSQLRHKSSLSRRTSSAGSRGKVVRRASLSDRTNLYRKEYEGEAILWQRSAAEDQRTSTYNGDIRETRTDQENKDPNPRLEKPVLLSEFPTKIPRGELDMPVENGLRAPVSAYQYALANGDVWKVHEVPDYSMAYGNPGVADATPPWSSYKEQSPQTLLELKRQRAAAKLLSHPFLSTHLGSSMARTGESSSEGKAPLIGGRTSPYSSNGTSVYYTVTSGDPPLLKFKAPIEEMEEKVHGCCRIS

Variants of: B1
Settings: with kxdl1_human KXD1, Q9BQD3

Row | effect of a mutation on the interaction | Variant
1 | with no effect | R480H
2 | with no effect | A365V

Variants of: B2
Settings: with spg21_human SPG21, Q9NZD8

Row | effect of a mutation on the interaction | Variant
3 | with no effect | S40L

Variants of: B3
Settings: with pp16b_human PPP1R16B

Row | effect of a mutation on the interaction | Variant
4 | with no effect | A24V
5 | with no effect | N119D
